Assay results from publication PMC3299984 (Structure(London, England:1993), 2012).

Biological target: the molecule itself
Experiment: SEC

B1: Schistosoma mansoni peroxiredoxin I (thioredoxin peroxidase I), reduced (enzyme)
chain: MVLLPNRPAPEFKGQAVINGEFKEICLKDYRGKYVVLFFYPADFTFVCPTEIIAFSDQVEEFNSRNCQVIACSTDSQYSHLAWDNLDRKSGGLGHMKIPLLADRKQEISKAYGVFDEEDGNAFRGLFIIDPNGILRQITINDKPVGRSVDETLRLLDAFQFVEKHGEVCPVNWKRGQHGIKVNQK
stoichiometry N: 10
